Results on one protein are retold here after patent US20030232412.

For the series, the target named is T1, His-tagged PprB.
T1 chain: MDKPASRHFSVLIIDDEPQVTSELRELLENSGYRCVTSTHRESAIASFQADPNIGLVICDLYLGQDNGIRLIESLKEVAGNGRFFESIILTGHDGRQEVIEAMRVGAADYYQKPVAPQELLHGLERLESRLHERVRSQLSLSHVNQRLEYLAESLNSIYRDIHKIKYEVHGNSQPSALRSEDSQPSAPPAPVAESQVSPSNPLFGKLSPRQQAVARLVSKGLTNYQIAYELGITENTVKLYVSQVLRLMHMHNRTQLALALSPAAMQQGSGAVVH

B1: His-tagged PprA (protein)
chain: MFEFSRSSSAEAERPEPFSQEGPALWSASLRSWDLCFEMDEQDRVIRVGGRQAYRLQCAHGLGEQPRPFAEYLERRAPGAPTLAGLRRGERLDLTLRSDAAAPLTCRFQPMQPLDGLGRSLLLGMDISDLNWQSDSQQHQLQSLSLGKLILSRLRHVSHGHLAEAVQEILESLSGAFQMQAIALLLGDGKGFCTVFASHVRPGSDSLLRPPLQLADDDLREGAGARLLRRGEGASTLLRQIGEDALYLVPATMRGGRLGALLVRPMSLEQLAQGPAPQDWQYLAELLANQVADRCELHEQHDSSRKLGLLQEMIGGGWWRYWAEQELFELAPALHDSLGLTGEYRRVPLEHLQGLLQPADADELGLRLRASLRSGQALAQDLCLRQPDSRGERRWLRIEGRPLGRGSALGLSGVLLDISEGRRQEERAQAAHARLRSLIDSAPVVIYVQRVEQGHLVPEFYSESASNLLGLDLQGQSWQALAERVHPDDLEAFFARGRELLREGRVKTRYRLADGQGNWHWLYDEAKLLRDAQGLPSEAVGLWLDVTEQHLAAQRIAESEERYRVLVEDSPALICRYTADLVLTYVNRTFADSLATSPERLVGRRLDEWLAAEDASALRARLLGSPREGASEVPELRFNLPGQRFLWLVWAERPLFDARGELCEVQAVGRDNTPVRRAQQQLAQGAKMASLGEMVSGLAHEVKQPLHVLRMTLFNMRQRMNSVGLDGDYLGEKLERMDAQVLRVDRLVSHLGVFSRKSALEALPFDPYAAFEGALGLLGEGLRQHAIEVECPAPTQRMVVRGQADQLEQVIINLLANARDALLGNPGLASRRVRLEQVACREPGWVELHVHDNGGGIEPLLLERIFEPFFTTKAEGKGTGLGLSVSHDLVRNMGGSLTAANQGEGALFVVRLPLAAPAEAGG
In the case of B1, the “in vitro phosphorylation assay ([gamma-32P]ATP, SDS-PAGE, autoradiography)” value is “PprA was phosphorylated; PprB was not. Notably, however, when PprA was mixed with PprB, PprB became highly phosphorylated”.
